Experimental findings from publication PMC12648313, “Enhancing the Efficacy, Utility, and Throughput of the Transcription Block Survival Peptide Library Screening Platform” (JACS Au, 2025) are described below.

Series [1] addresses FAM-H-Box DNA. The series can be described thus: FP DNA binding, DLX5. The following applies: pH 7.4. How it is done:
(§1) removed before peptide concentration determination.
(§2) Peptide samples were suspended in 20
(§3) Post-melt scans at 20°C confirmed the
(§4) Sequential 2 µL injections of ATF2W (50 µM)
(§5) Data from a control experiment whereby […]
(§6) errors are given as one standard deviation.
(§7) Fluorescence polarisation: Fluorescence polarisation was measured in a CLARIOstar […]
(§8) chloride, 5 mM MgCl2, 10 mM TCEP, pH 7.4 buffer. Palindromic FAM-CRE DNA oligo was […]
(§9) purchased from Merck: 5’[6FAM]- GCGCTGACGTCAGCGC. 200 µM of the oligo was […]
(§10) prepared in water and then annealed by heating to 95°C for 10 minutes before cooling slowly to room temperature to give a 100 µM duplex stock. Samples containing 10 nM FAM-CRE and a serial dilution of ATF2 (12 nM-10 µM) were prepared and incubated at room temperature for 1 hour before transferring to the assay plate for measurement. Data were fit to a one site binding model. For antagonism experiments, the ATF2 concentration required for 80% response was selected. Samples containing 10 nM FAM-TRE, 625 nM ATF2 and a serial dilution of ATF2W (29 nM-12 µM) were prepared and incubated at room temperature for 2 hours before transferring to the assay plate for measurement. CREB1/CRE, cJun/TRE and DLX5/H-box DNA antagonism were determined by the equivalent experiments, using the FAM-CRE oligo above; FAM-TRE DNA oligoes: 5’-[6FAM]-TCTCTGACTCAGAGA, 5’- […]

For series [2], the system named is 9xDLX (H-box) mDHFR reporter. Description: TBS growth assay: transcription block by DLX5 HD / FL. The following applies: 8 μM TMP; for colony formation on target expression (transcription block): strains 9 (HD) and 10 (FL) vs 8, 9xDLX mDHFR, M9 agar, 0.8 or 0.2 mM IPTG, 30 or 37 °C, three independent experiments. The series is classed as cell-based, E. coli BL21-Gold. From the text:
To highlight the platforms versatility for TFs with distinct DNA recognition motifs, we next constructed a 9xhomeobox (H-Box) system to identify inhibitors of homeodomain-containing TFs, including the DLX (Figure C), pre-B cell leukemia transcription factor (PBX) and orthodenticle homeobox protein (OTX) families. As with the CRE-based design, nine H-box consensus sequences were inserted into the 5′-promoter/UTR region of the mDHFR reporter gene (Figure S4).
(§11) 3 Introduction of H-box DNA sites into the 5′-promoter/UTR region of a mDHFR plasmid enables transcription block by both DLX5 full length and homeodomain. Equal numbers of cells from the control strains (Table ) were plated on selective M9 agar (0 or 8 μM TMP, 0.8 or 0.2 mM IPTG) and incubated (30 or 37 °C) before imaging. Bar charts show % plate coverage for three independent experiments with error bars shown as one standard deviation. Select p values from a t test are indicated (*p ≤ 0.05; **p ≤ 0.01; ns = not significant).
(§12) Enhancing the efficacy, utility and throughput of the Transcription Block Survival peptide library screening platform
(§13) Andrew Brennan1,2, T M Simon Tang1 and Jody M Mason1,2
(§14) 1Department of Life Sciences, University of Bath, Bath BA2 7AY, United Kingdom 2Address correspondence to JMM or AB (j.mason@bath.ac.uk; ab3107@bath.ac.uk) […]
Plasmid constructs: Target cognate binding sequence-containing inserts were produced using PCR fill-in reactions from synthesised primers (Merck). They were then subcloned using XhoI and SphI sites into the pQE16-derivative pES300d WT mDHFR plasmid (Figure S1, S2, S3). […]
(§15) pressure respectively. Three independent growth experiments were conducted for each strain/condition with the percentage of the plate covered by bacterial colonies determined using ImageJ 1.54G. Images were converted to 8-bit, threshold values were set to identify coverage, and the resulting black and white image was measured for percentage coverage in a defined circle excluding the plate edge. Percentage coverage was utilised to quantify both bacterial survival and growth rate.

Series [3] concerns the target FAM-labeled CRE DNA. The series can be described thus: FP DNA binding, ATF2. As to conditions: ATF2 12 nM-10 μM, 10 nM FAM-CRE DNA; 20 mM potassium phosphate, 50 mM NaCl, 5 mM MgCl2, 10 mM TCEP, pH 7.4; 1 h, room temperature; one site model.
The target in series [4] is FAM-CRE DNA. Description: FP DNA binding, CREB1. The following applies: pH 7.4. How it is done:
as §1, §2, §3, §4, §5, §6, §7, §8, §9, §10

Series [5] relates to CREB1 bZIP-CRE DNA (CRE mDHFR reporter). The series can be described thus: TBS growth assay: transcription block relief / peptide antagonism in E. coli (CREB1/CRE). The following applies: M9 agar, 8 μM TMP, 1 mM IPTG, three independent experiments. The class given is cell-based, E. coli BL21-Gold.
Source text: To validate the new TBS constructs, six BL21-Gold E. coli control strains were generated. Empty plasmids (lacking gene of interest) were used to control for replication and antibiotic stresses (Table ): Control strains 1 and 4 contained mDHFR gene reporter plasmids for 5xCRE and 9xCRE respectively, and two empty plasmids; control strains 2 and 5 contained reporter plasmid, target plasmid encoding the CREB1 basic-leucine zipper (bZIP) domain and one empty plasmid; control strains 3 and 6 contained reporter plasmid, target plasmid and the antagonist plasmid encoding A-CREB (peptide inhibitor of CREB1 comprising a rationally designed acidic extension appended to the N-terminus of the CREB1 LZ).
2 Introduction of CRE DNA sites into the 5′-promoter/UTR region of a mDHFR plasmid facilitates effective transcription block. […]
as §15

For series [6], the target named is cJun bZIP (UniProt P05412). The series can be described thus: competition (FP). As to conditions: antagonist peptide ATF2W; FP: chloride salt (buffer and salt concentration truncated in material), 5 mM MgCl2, 10 mM TCEP, pH 7.4; 10 nM FAM-DNA; 1 h incubation, temperature not in ….
In series [7] the target is cJun bZIP (UniProt P05412). The series can be described thus: fluorescence polarization. As to conditions: FP: chloride salt (buffer and salt concentration truncated in material), 5 mM MgCl2, 10 mM TCEP, pH 7.4; 10 nM FAM-DNA; 1 h incubation, temperature not in …. For orientation: In fluorescence polarisation assays a small probe gives low polarisation when free and higher when bound to something large.

Series [8] has as its system E. coli. Description: TBS growth without TMP (cellular toxicity of expression). The series is classed as cell-based, E. coli BL21-Gold. As to conditions: strain 10, 0 μM TMP, 0.8 mM IPTG. How it is done:
as §11, §12, §13, §14, §15

Series [9] concerns the target T1, CREB1 bZIP (UniProt P16220 269-327).
T1 sequence: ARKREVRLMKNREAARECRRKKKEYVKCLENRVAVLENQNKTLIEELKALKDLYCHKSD
The series can be described thus: fluorescence polarization; FP: chloride salt (buffer and salt concentration truncated in material), 5 mM MgCl2, 10 mM TCEP, pH 7.4; 10 nM FAM-DNA; 1 h incubation, temperature not in material. As to conditions: chain copies: 2; label: 5' 6-FAM; blunt; self-complementary, 2 copies.

The target in series [10] is T1, CREB1 bZIP. Description: competition (FP); antagonist peptide ATF2W; FP: chloride salt (buffer and salt concentration truncated in material), 5 mM MgCl2, 10 mM TCEP, pH 7.4; 10 nM FAM-DNA; 1 h incubation, temperature not in material. The following applies: chain copies: 2; label: 5' 6-FAM; blunt; self-complementary, 2 copies.
Series [11] concerns the target T2, ATF2 bZIP (human, UniProt P15336 352-410).
T2 sequence: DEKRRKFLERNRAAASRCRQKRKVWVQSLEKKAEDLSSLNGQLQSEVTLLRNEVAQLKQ
The series can be described thus: competition (FP); antagonist peptide ATF2W 29 nM-12 uM, 625 nM ATF2; FP: chloride salt (buffer and salt concentration truncated in material), 5 mM MgCl2, 10 mM TCEP, pH 7.4; 10 nM FAM-DNA; 1 h incubation, temperature not in material. The following applies: chain copies: 2; label: 5' 6-FAM; blunt; self-complementary, 2 copies.

The target of series [12] is T2, ATF2 bZIP. Description: fluorescence polarization; 10 nM DNA, ATF2 12 nM-10 uM; FP: chloride salt (buffer and salt concentration truncated in material), 5 mM MgCl2, 10 mM TCEP, pH 7.4; 10 nM FAM-DNA; 1 h incubation, temperature not in material. The following applies: chain copies: 2; label: 5' 6-FAM; blunt; self-complementary, 2 copies.
Series [13] has as its target T2, ATF2 bZIP. Description: competition (FP); antagonist: non-selected library member control peptide; FP: chloride salt (buffer and salt concentration truncated in material), 5 mM MgCl2, 10 mM TCEP, pH 7.4; 10 nM FAM-DNA; 1 h incubation, temperature not in material. The following applies: chain copies: 2; label: 5' 6-FAM; blunt; self-complementary, 2 copies.
The target of series [14] is FAM-TRE DNA. Description: FP DNA binding, cJun. The following applies: pH 7.4. Here is the method:
as §1, §2, §3, §4, §5, §6, §7, §8, §9, §10

Series [15] deals with DLX5 HD (UniProt P56178 138-198). Description: fluorescence polarization; FP: chloride salt (buffer and salt concentration truncated in material), 5 mM MgCl2, 10 mM TCEP, pH 7.4; 10 nM FAM-DNA; 1 h incubation, temperature not in material. The following applies: label: 5' 6-FAM; blunt; self-complementary, 2 copies.
DLX5 HD, sequence (P56178 138-198): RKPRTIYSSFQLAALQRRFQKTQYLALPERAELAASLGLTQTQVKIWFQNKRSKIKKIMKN

A word on the Kd: it is the free concentration of one partner at which half of the binding sites on the other are occupied at equilibrium, for simple one-to-one binding. In series [1], “DLX5: DLX5 HD spans from Val137 to Asn198” displayed a Kd of 383 ± 19 nM. Besides, the “colony formation on target expression (transcription block)” value in series [2] is listed as “less pronounced than in the corresponding CRE system”.

“ATF2: human ATF2 bZIP domain spans from Asp352 to Gln410” had a Kd in [3] of 277 ± 19 nM.

In [4], “CREB1: CREB1 bZIP domain spans from Ala283 to Asp341 (ARKREVRLMKNREAARECRRKKKEYVKCLENRVAVLENQNKTLIEELKALKDLYCHKSD)” came in with a Kd of 156 ± 26 nM. The “bacterial growth on target expression (transcription block)” value in series [5] (strains 2 and 5 (5xCRE and 9xCRE mDHFR)) is listed as “markedly reduced growth”.

As to “LEQQLEELAQENEELEKEAEELEQELAELENRVAVLENQNKTLIEELKALKDLYCHKSD [A-CREB, reference compound]”, the “bacterial growth restoration (relief of transcriptional block)” value in series [5] (strains 3 and 6 (5xCRE and 9xCRE mDHFR) expressing CREB1 bZIP and A-CREB, % plate coverage) was “Growth was restored”.

The IC50 is the concentration that gives 50% inhibition. “TCTCTGACTCAGAGA (double strand) [FAM-TRE]”: the IC50 in series [6] stood at 1850 nM. The Kd in series [7] was 330 nM.

DLX5 FL: full-length DLX5: the “growth in absence of TMP (cellular toxicity)” value in series [8] is given as “reduced growth was also observed in the absence of TMP”. The “growth inhibition on target expression, comparison FL vs HD” value in [2] (strain 10 vs 9, optimized conditions: 0.2 mM IPTG or 30 °C) is “produced a robust transcriptional block and more effectively suppressed E. coli growth than DLX5 HD”. The “colony formation on target expression (transcription block)” value in [2] is listed as “introduced a transcriptional block, resulting in reduced colony formation”.

B1: FAM-CRE (dsDNA)
DNA 1: GCGCTGACGTCAGCGC
DNA 2: GCGCTGACGTCAGCGC
Turning to B1, the figures for the Kd in series [9] and in series [12] were 156 ± 26 nM and 277 ± 19 nM, respectively. For the same molecule, the IC50 is 2360 ± 59 nM in [10], 667 ± 71 nM in series [11] and 3690 ± 110 nM in [13].

B2: cJun: purified cJun bZIP (protein)
chain: RIKAERKRMRNRIAASKCRKRKLERIARLEEKVKTLKAQNSELASTANMLREQVAQLKQKVMNH
On to B2, for which, in series [14], binding was characterised by a dissociation constant (Kd) of 330 ± 42 nM.

B3: FAM-H-Box (dsDNA)
DNA 1: TCTCTAATTAGAGA
DNA 2: TCTCTAATTAGAGA
As to B3, in [15], the Kd came to 383 ± 19 nM.
